Experimental data from US6468567B1, “Malt beverage having stabilized flavor and methods of production thereof” (Cerveceria Polar, C.A., priority 1997, dated 2002).

Experiments:
[1] = Substrate specificity assays of the purified reductase enzymes; type: biochemical; details: FIG. 10
Method: The activities of the isolated and purified oxoaldehyde reductase enzymes were determined in a mixture containing 9 mM methylglyoxal, 0.1 mM NADPH, 25 mM potassium phosphate buffer (pH 7.0), and the fraction enzyme (8 μg approximately) in a total volume of 0.5 ml. The reaction was monitored at 340 nm. All assays were performed at 25° C. One unit of the enzyme was defined as the amount of enzyme that the catalyzes the oxidation of 1 μmol of NADPH per minute at 25° C.
Various carbonyl compounds were assayed as substrates for the isolated and purified reductase enzymes.

[2] = Effect of the reductases on the LC18 peak in fresh beer (HPLC); type: biochemical; details: 50 units/ml enzyme, 25° C., 30 minutes, FIG. 11
Method: Analysis of the chemical indices LC18 and 5-HMF was performed by liquid chromatography, using a Waters HPLC system which consisted of a 600 pump, Wisp 717 autosampler, Millennium 2010 Chromatography Manager v 2.1. Separation was carried out in an Aminex HPX-87H column 300×7.8 mm, 9 μm held at 55° C. Elution was monitored with a Waters 991 Photodiode Array Detector (200 nm-300 nm) and the quantitation of 5-HMF and LC18 peak was carried out at 283 nm. For analysis, 50 μl of degassed beer was injected in duplicate samples and eluted with 0.05 M H2SO4 over 25 min at a flow rate of 1.0 ml/min. Quantitation of 5-HMF was performed using an external calibration curve of the respective pure compounds (Sigma; Saint Louis, Mo.).
In order to determine the effect of both reductases on the intensity of the LC18 peak, a 1 ml mixture of fresh beer, 25 mM potassium phosphate buffer (pH 7.0), 0.1 mM NADPH and the required volume of enzyme to obtain a final concentration in the solution of 50 units/ml of enzyme was incubated at 25° C. for 30 minutes. After the incubation, the treated beer was analyzed on an Aminex HPX-87H column connected to a Waters HPLC System under the conditions described above.

B1: Reductase 1: NADPH-dependent oxidoreductase purified from brewer's yeast; first 30 residues show 100% homology to Old Yellow Enzyme isozyme OYE2 (protein, UniProt Q03558 2-400, looked up)
NADPH dehydrogenase 2: PFVKDFKPQALGDTNLFKPIKIGNNELLHRAVIPPLTRMRAQHPGNIPNRDWAVEYYAQRAQRPGTLIITEGTFPSPQSGGYDNAPGIWSEEQIKEWTKIFKAIHENKSFAWVQLWVLGWAAFPDTLARDGLRYDSASDNVYMNAEQEEKAKKANNPQHSITKDEIKQYVKEYVQAAKNSIAAGADGVEIHSANGYLLNQFLDPHSNNRTDEYGGSIENRARFTLEVVDAVVDAIGPEKVGLRLSPYGVFNSMSGGAETGIVAQYAYVLGELERRAKAGKRLAFVHLVEPRVTNPFLTEGEGEYNGGSNKFAYSIWKGPIIRAGNFALHPEVVREEVKDPRTLIGYGRFFISNPDLVDRLEKGLPLNKYDRDTFYKMSAEGYIDYPTYEEALKLGWDKN
activity on pyruvate [1]: neither enzyme showed any appreciable activity | effect on the assayed aldoses (glucose, galactose and xylose) [1]: little or no effect | metyrapone as substrate [1]: acceptable substrate | activity on compounds with a single keto or aldo group such as acetaldehyde and pyridine-3-aldehyde ([1]; comparison of Reductase 1 with Reductase 2): higher activity than Reductase 2 | activity on 2-oxoaldehydes such as methylglyoxal and 3-deoxyglucosone ([1]; substrates methylglyoxal, 3-deoxyglucosone): acted on | change in the area of the LC18 peak ([2]; 0.1 mM NADPH, relative to untreated control beer): significant decrease | decrease in the LC18 peak compared with Reductase 2 [2]: larger decrease
